Assay results: US20240254227A1 (Alector, published 2024)

How the values were obtained:
murine CD300C-Fc = molecular target: T1, murine CD300C-Fc (mouse); assay: SPR (Carterra LSA), antibody immobilised, Fc fusion at 300 or 600 nM
T1 construct: mouse IgG2a-Fc fusion (R&D Systems); the entry is the whole fusion chain; also called mCD300C; Mouse CD300C-Fc
T1 chain: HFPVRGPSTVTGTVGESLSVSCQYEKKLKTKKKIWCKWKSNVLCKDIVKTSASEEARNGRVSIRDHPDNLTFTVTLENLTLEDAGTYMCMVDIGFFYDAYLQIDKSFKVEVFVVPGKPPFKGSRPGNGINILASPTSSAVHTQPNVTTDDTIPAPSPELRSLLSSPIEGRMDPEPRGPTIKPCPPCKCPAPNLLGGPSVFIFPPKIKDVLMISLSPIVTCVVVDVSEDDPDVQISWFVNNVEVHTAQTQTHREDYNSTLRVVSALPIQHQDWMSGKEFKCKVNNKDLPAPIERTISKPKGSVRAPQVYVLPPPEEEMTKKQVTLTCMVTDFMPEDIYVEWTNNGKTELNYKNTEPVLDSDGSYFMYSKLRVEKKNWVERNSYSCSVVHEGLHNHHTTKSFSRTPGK
Experimental: (§1) Binding of mouse anti-CD300LB IgG1 antibodies of the present disclosure to human and murine CD300 orthologs were evaluated by surface plasmon resonance (SPR) using a Carterra LSA instrument (Carterra, Salt Lake City, UT). […] A HC200M sensor chip (Carterra) was activated using the single channel flow cell with a 7-minute injection of a 1:1:1 mixture of 100 mM MES pH 5.5, 100 mM sulfo-NHS, 400 mM EDC (all reconstituted in MES pH 5.5; 100 μL of each mixed in vial immediately before running assay). After switching to the multi-channel array flow cell, the antibodies were injected over the activated chip in a 96-spot array for 10 minutes. The remaining unconjugated active groups on the chip were then blocked by injecting 1M Ethanolamine pH 8.5 (Carterra) for 7 minutes using the single channel flow cell. After priming with running buffer (HBS-TE, Carterra) with 0.5 mg/ml BSA (Sigma), the immobilized anti-CD300LB antibodies were tested for their ability to bind human and mouse recombinant CD300LB extracellular domains. Human CD300 family members and mouse CD300A were hIgG1-Fc fusions, while mouse CD300LB, mouse CD300C, mouse CD300D, and mouse CD300E were mouse IgG2a-Fc fusions (R&D Systems). Binding was assessed by injecting each analyte over the entire antibody array using the single channel flow cell. CD300 analytes were diluted to 300 nM or 600 nM in running buffer and injected in series without regeneration. Two or three buffer blanks were run between each mouse or human ortholog, respectively. Data were processed and analyzed using NextGenKIT high-throughput kinetics analysis software (Carterra).
(§2) Results of anti-CD300LB antibody binding to murine CD300 family members is provided below in Table 8.

murine CD300E-Fc = molecular target: T2, murine CD300E-Fc (mouse); assay: as above
T2 construct: mouse IgG2a-Fc fusion (R&D Systems); the entry is the whole fusion chain; also called mCD300E; Mouse CD300E-Fc
T2 chain: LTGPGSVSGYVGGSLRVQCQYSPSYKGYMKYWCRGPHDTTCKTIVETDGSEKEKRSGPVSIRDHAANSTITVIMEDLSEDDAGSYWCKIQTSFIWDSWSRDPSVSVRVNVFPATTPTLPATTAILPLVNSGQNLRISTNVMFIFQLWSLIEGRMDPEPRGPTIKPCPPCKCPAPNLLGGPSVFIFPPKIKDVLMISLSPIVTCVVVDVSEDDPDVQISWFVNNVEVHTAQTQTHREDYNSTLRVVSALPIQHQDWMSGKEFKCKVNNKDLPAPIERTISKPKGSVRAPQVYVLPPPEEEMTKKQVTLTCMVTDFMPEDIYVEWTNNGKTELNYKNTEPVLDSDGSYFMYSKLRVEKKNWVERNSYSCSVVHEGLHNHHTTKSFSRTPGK
Experimental: as §1, §2

B1: anti-CD300LB antibody CD-18 (antibody, V domains shown)
VH: DVQLQESGPDLVKPSQSLSLTCTVTGYSITSGYSWHWIRQFPDNKLEWMGYILSRGDTNFNPSLKSRISITRSTSNNQFFLHFNSVTTEDTATYYCARDFFDYWGQGTTLTVSS
VL: DVLMTQTPLSLPVSLGDQASISCRSSQSIVHSNGNTYLEWYLQKPGQSPKLLIYKVSDRFSGVPDRFSGSGSGTDFTLKISRVEAEDLGVYFCFQGSHVPYTFGGGTKLEIK
For B1, the “SPR binding (control subtracted)” value (murine CD300C-Fc) was 1.5 and the “SPR binding (control subtracted)” value (murine CD300E-Fc) was -0.1.
